Data reported in the supplement of paper PMC10065799, “High-throughput profiling of sequence recognition by tyrosine kinases and SH2 domains using bacterial peptide display” (eLife, 2023).

biological target: MERTK (UniProt Q12866); experiment: phosphorylation enrichment, bacterial display (enrichment ratio); higher = better substrate or ligand; peptides without Tyr show the background
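Also: 11-residue human phosphosite peptides and single-mutation variants displayed on the E. coli surface, counted by deep sequencing, each peptide's frequency after selection divided by its frequency in the unselected input library; frequency after pTyr selection over input frequency; kinase dosed for 20-30% of maximal phosphorylation in three min.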

MERTK, sequence (Q12866 whole entry, looked up): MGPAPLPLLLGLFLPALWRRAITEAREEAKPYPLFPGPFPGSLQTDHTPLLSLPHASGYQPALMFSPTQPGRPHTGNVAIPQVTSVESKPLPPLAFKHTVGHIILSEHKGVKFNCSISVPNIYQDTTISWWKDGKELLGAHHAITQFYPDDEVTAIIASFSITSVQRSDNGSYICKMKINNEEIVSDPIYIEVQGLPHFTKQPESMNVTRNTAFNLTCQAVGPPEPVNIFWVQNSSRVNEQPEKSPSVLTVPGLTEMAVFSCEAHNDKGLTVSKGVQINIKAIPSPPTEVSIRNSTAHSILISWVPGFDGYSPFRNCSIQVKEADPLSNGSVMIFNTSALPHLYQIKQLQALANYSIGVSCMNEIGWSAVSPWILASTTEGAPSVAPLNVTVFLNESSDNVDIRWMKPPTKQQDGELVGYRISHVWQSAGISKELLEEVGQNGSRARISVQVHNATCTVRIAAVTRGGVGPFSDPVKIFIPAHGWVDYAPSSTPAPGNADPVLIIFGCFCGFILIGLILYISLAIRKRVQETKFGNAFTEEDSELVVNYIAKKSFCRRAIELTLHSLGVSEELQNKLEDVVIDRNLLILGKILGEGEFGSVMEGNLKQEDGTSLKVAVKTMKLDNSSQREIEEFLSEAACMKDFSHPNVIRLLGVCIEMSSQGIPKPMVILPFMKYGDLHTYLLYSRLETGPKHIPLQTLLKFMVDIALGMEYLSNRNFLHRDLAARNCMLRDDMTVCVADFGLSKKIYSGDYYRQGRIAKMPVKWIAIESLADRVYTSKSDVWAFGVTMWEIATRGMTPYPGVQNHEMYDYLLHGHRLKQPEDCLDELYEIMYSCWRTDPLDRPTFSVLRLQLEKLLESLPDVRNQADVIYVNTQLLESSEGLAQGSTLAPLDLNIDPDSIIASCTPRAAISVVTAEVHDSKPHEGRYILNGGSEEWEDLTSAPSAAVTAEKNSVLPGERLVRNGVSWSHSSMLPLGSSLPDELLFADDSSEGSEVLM

Row | Sequence | phosphorylation enrichment
1 | SFSGEYGSGGG [ZG16_Y30_G32S_YF] | 0.327
2 | SVTCTYSPAVN [TP53_Y126_L130V] | 0.508
3 | TWQSMYGCDVG [HLA-B_Y123_L119W] | 0.6
4 | CWAVKYLQMVG [AVPR2_Y117_R113W] | 0.386
5 | TKDTFYKQPVF [GBA_Y451_M455V] | 0.417
6 | RESYKYFPSSL [CXXC1_Y218] | 0.69
7 | EAEALYQTKFQ [KRT73_Y325] | 0.569
8 | GLTSTYVGIRK [ROBO1_Y932_A933V] | 0.463
9 | YRKNTYNVKST [SYNE2_Y575_I574T] | 0.316
10 | KEAQVYQAFRL [SUCLG2_Y343_K347R] | 4.78
11 | QEGPEYWDEET [HLA-A_Y83_Q86E] | 1.07
12 | HEVHIYENSGA [ARPC1B_Y35_K37N] | 0.826
13 | DFPMGYPSYLA [TBCK_Y153_I151M] | 0.464
14 | SGEKPYKCSVC [ZNF543_Y283_E287V] | 0.416
15 | LRYDSYSSYCN [SLC20A2_Y433] | 1.38
16 | RDLHTYIMPAH [PNMT_Y256_R254H] | 0.601
17 | CFVFFYSFLLK [PTEN_Y178_R173C_YF] | 0.557

Row | Sequence | phosphorylation enrichment
18 | HKNNNYEPSLF [BRCA2_Y57_N60S] | 0.654
19 | LINPKYSVEEE [PCDH19_Y27_L25P] | 0.836
20 | LLVVLNKFRCF [PSEN1_Y154_Y154N_YF] | 0.795
21 | CPPELYALMSD [ZAP70_Y569] | 3.54
22 | VNYQPYRKHKY [TEX37_Y28_D24N] | 0.351
23 | HAEERYGKELV [PSTPIP1_Y53_Q48H] | 0.382
24 | TQNAVYSAANY [DDX5_Y535_G533A] | 5.57
25 | GITVTYTIPKK [UBA5_Y372_A371T] | 1.49
26 | QRHFVYFFSFL [PTEN_Y176_R173H_YF] | 0.717
27 | RAILLYEYVGK [NATD1_Y45_V42I] | 19.1
28 | VDLIVYLWTNP [TK2_Y181_R183W] | 0.397
29 | KKKKQYKGKFL [CASK_Y708_D710G_YF] | 0.533
30 | RLRAAYNLVKR [PFKM_Y103] | 0.559
31 | PGGNIYISPLK [RB1_Y805] | 0.685
32 | GGFTWYCDGKK [PROS1_Y266_C265W_YF] | 0.29
33 | HSVLNYGVCVC [JAK2_Y613_L609S] | 0.482

biological target: EPHB1 (UniProt P54762); experiment: as above
Sequence (P54762 whole entry, looked up): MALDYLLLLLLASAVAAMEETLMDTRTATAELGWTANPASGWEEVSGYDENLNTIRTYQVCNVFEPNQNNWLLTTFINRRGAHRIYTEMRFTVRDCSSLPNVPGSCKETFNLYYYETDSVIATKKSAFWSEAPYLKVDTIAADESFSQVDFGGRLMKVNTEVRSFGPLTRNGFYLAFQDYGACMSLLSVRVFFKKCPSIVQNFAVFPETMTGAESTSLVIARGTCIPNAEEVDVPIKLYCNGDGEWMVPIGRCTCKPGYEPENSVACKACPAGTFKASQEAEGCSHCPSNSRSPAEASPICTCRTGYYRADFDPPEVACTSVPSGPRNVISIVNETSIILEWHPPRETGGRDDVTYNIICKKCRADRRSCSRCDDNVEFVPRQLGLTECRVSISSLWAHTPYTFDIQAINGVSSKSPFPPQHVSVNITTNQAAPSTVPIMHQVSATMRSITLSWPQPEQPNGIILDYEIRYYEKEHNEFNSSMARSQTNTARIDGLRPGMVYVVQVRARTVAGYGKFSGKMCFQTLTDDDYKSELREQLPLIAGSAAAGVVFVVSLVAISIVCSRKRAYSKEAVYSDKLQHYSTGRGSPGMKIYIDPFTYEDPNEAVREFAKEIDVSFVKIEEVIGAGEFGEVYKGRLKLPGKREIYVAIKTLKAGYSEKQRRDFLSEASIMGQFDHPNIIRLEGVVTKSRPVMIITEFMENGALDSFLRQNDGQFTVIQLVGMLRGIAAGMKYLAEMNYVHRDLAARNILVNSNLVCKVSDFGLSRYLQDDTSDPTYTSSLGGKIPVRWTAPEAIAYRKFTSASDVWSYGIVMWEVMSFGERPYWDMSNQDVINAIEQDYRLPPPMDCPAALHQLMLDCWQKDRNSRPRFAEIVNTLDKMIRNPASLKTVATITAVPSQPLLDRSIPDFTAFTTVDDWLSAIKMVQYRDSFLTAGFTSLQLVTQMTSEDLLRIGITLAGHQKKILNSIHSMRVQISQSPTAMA

Row | Sequence | phosphorylation enrichment
34 | SFSGEYGSGGG [ZG16_Y30_G32S_YF] | 0.34
35 | SVTCTYSPAVN [TP53_Y126_L130V] | 0.77
36 | TWQSMYGCDVG [HLA-B_Y123_L119W] | 0.933
37 | CWAVKYLQMVG [AVPR2_Y117_R113W] | 0.622
38 | TKDTFYKQPVF [GBA_Y451_M455V] | 0.409
39 | RESYKYFPSSL [CXXC1_Y218] | 0.651
40 | EAEALYQTKFQ [KRT73_Y325] | 0.58
41 | GLTSTYVGIRK [ROBO1_Y932_A933V] | 0.471
42 | YRKNTYNVKST [SYNE2_Y575_I574T] | 0.351
43 | KEAQVYQAFRL [SUCLG2_Y343_K347R] | 1.23
44 | QEGPEYWDEET [HLA-A_Y83_Q86E] | 1.25
45 | HEVHIYENSGA [ARPC1B_Y35_K37N] | 1.38
46 | DFPMGYPSYLA [TBCK_Y153_I151M] | 0.399
47 | SGEKPYKCSVC [ZNF543_Y283_E287V] | 0.261
48 | LRYDSYSSYCN [SLC20A2_Y433] | 2.74
49 | RDLHTYIMPAH [PNMT_Y256_R254H] | 0.754
50 | CFVFFYSFLLK [PTEN_Y178_R173C_YF] | 0.473

Row | Sequence | phosphorylation enrichment
51 | HKNNNYEPSLF [BRCA2_Y57_N60S] | 0.689
52 | LINPKYSVEEE [PCDH19_Y27_L25P] | 1.06
53 | LLVVLNKFRCF [PSEN1_Y154_Y154N_YF] | 0.951
54 | CPPELYALMSD [ZAP70_Y569] | 3.39
55 | VNYQPYRKHKY [TEX37_Y28_D24N] | 0.367
56 | HAEERYGKELV [PSTPIP1_Y53_Q48H] | 0.881
57 | TQNAVYSAANY [DDX5_Y535_G533A] | 2.46
58 | GITVTYTIPKK [UBA5_Y372_A371T] | 0.537
59 | QRHFVYFFSFL [PTEN_Y176_R173H_YF] | 0.983
60 | RAILLYEYVGK [NATD1_Y45_V42I] | 33.9
61 | VDLIVYLWTNP [TK2_Y181_R183W] | 0.643
62 | KKKKQYKGKFL [CASK_Y708_D710G_YF] | 0.447
63 | RLRAAYNLVKR [PFKM_Y103] | 0.571
64 | PGGNIYISPLK [RB1_Y805] | 0.4
65 | GGFTWYCDGKK [PROS1_Y266_C265W_YF] | 0.651
66 | HSVLNYGVCVC [JAK2_Y613_L609S] | 0.87

biological target: FGFR3 (UniProt P22607); experiment: as above
Sequence (P22607 whole entry, looked up): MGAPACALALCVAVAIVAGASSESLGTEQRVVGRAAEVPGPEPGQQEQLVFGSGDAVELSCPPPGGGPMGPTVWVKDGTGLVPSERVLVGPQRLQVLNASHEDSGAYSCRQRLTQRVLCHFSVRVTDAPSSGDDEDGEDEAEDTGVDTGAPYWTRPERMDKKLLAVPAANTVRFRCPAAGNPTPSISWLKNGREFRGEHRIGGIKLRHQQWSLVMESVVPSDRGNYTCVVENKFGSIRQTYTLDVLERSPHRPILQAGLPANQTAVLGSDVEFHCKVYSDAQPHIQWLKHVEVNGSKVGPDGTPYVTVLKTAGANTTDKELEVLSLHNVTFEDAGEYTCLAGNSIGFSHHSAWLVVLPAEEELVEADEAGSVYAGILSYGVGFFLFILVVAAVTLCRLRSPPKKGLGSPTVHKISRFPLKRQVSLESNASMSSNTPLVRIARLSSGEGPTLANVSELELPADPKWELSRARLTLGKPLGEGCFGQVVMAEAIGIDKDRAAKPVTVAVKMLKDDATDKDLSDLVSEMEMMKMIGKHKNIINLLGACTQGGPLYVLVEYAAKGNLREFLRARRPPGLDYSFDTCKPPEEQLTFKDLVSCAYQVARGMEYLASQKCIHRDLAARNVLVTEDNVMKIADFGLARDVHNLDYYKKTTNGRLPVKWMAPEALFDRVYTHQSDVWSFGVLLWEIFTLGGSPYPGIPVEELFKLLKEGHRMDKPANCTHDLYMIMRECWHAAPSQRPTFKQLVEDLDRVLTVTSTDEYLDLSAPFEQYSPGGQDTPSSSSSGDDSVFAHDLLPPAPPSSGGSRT

Row | Sequence | phosphorylation enrichment
67 | SFSGEYGSGGG [ZG16_Y30_G32S_YF] | 0.432
68 | SVTCTYSPAVN [TP53_Y126_L130V] | 0.945
69 | TWQSMYGCDVG [HLA-B_Y123_L119W] | 0.802
70 | CWAVKYLQMVG [AVPR2_Y117_R113W] | 0.703
71 | TKDTFYKQPVF [GBA_Y451_M455V] | 0.473
72 | RESYKYFPSSL [CXXC1_Y218] | 1.09
73 | EAEALYQTKFQ [KRT73_Y325] | 0.687
74 | GLTSTYVGIRK [ROBO1_Y932_A933V] | 0.489
75 | YRKNTYNVKST [SYNE2_Y575_I574T] | 0.361
76 | KEAQVYQAFRL [SUCLG2_Y343_K347R] | 0.581
77 | QEGPEYWDEET [HLA-A_Y83_Q86E] | 1.33
78 | HEVHIYENSGA [ARPC1B_Y35_K37N] | 0.892
79 | DFPMGYPSYLA [TBCK_Y153_I151M] | 0.473
80 | SGEKPYKCSVC [ZNF543_Y283_E287V] | 0.355
81 | LRYDSYSSYCN [SLC20A2_Y433] | 0.849
82 | RDLHTYIMPAH [PNMT_Y256_R254H] | 1.04
83 | CFVFFYSFLLK [PTEN_Y178_R173C_YF] | 0.865

Row | Sequence | phosphorylation enrichment
84 | HKNNNYEPSLF [BRCA2_Y57_N60S] | 0.891
85 | LINPKYSVEEE [PCDH19_Y27_L25P] | 1.36
86 | LLVVLNKFRCF [PSEN1_Y154_Y154N_YF] | 1.18
87 | CPPELYALMSD [ZAP70_Y569] | 1
88 | VNYQPYRKHKY [TEX37_Y28_D24N] | 0.501
89 | HAEERYGKELV [PSTPIP1_Y53_Q48H] | 1.02
90 | TQNAVYSAANY [DDX5_Y535_G533A] | 0.619
91 | GITVTYTIPKK [UBA5_Y372_A371T] | 0.563
92 | QRHFVYFFSFL [PTEN_Y176_R173H_YF] | 1.46
93 | RAILLYEYVGK [NATD1_Y45_V42I] | 5.74
94 | VDLIVYLWTNP [TK2_Y181_R183W] | 0.955
95 | KKKKQYKGKFL [CASK_Y708_D710G_YF] | 0.579
96 | RLRAAYNLVKR [PFKM_Y103] | 1.01
97 | PGGNIYISPLK [RB1_Y805] | 0.526
98 | GGFTWYCDGKK [PROS1_Y266_C265W_YF] | 0.833
99 | HSVLNYGVCVC [JAK2_Y613_L609S] | 0.84

biological target: Jak2 (UniProt O60674); experiment: as above
Sequence (O60674 whole entry, looked up): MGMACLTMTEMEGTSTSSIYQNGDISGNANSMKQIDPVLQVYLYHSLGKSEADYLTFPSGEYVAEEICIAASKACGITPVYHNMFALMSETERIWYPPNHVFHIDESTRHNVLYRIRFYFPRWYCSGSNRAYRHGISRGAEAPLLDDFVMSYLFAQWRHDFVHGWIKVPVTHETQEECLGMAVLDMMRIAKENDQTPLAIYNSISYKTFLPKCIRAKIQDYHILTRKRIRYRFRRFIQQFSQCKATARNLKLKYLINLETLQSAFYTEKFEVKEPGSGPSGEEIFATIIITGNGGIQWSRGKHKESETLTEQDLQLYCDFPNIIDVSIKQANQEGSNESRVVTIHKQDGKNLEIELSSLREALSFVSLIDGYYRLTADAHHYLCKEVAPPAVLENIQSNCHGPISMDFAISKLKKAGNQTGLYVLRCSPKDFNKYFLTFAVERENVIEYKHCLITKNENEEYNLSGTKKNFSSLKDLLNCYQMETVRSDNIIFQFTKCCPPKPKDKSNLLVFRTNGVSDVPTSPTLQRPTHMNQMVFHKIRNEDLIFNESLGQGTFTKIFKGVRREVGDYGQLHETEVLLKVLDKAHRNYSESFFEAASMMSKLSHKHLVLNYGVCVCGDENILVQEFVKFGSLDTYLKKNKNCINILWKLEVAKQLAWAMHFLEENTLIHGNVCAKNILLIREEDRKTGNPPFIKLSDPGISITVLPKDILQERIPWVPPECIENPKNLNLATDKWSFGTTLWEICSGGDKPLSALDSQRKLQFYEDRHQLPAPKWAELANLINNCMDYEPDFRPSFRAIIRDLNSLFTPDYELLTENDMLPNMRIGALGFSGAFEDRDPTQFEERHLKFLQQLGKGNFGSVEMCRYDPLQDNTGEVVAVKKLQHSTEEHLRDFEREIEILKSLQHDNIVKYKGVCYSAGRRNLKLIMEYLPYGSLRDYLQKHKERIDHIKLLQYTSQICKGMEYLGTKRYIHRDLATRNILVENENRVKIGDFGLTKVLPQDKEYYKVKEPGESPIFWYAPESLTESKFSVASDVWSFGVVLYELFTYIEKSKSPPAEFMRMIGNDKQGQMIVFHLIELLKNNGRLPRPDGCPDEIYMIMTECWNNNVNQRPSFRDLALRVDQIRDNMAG

Row | Sequence | phosphorylation enrichment
100 | SFSGEYGSGGG [ZG16_Y30_G32S_YF] | 0.563
101 | SVTCTYSPAVN [TP53_Y126_L130V] | 1.49
102 | TWQSMYGCDVG [HLA-B_Y123_L119W] | 1.37
103 | CWAVKYLQMVG [AVPR2_Y117_R113W] | 1.26
104 | TKDTFYKQPVF [GBA_Y451_M455V] | 0.695
105 | RESYKYFPSSL [CXXC1_Y218] | 1.15
106 | EAEALYQTKFQ [KRT73_Y325] | 0.976
107 | GLTSTYVGIRK [ROBO1_Y932_A933V] | 0.598
108 | YRKNTYNVKST [SYNE2_Y575_I574T] | 0.393
109 | KEAQVYQAFRL [SUCLG2_Y343_K347R] | 0.661
110 | QEGPEYWDEET [HLA-A_Y83_Q86E] | 1.38
111 | HEVHIYENSGA [ARPC1B_Y35_K37N] | 1.31
112 | DFPMGYPSYLA [TBCK_Y153_I151M] | 0.663
113 | SGEKPYKCSVC [ZNF543_Y283_E287V] | 0.434
114 | LRYDSYSSYCN [SLC20A2_Y433] | 0.865
115 | RDLHTYIMPAH [PNMT_Y256_R254H] | 0.957
116 | CFVFFYSFLLK [PTEN_Y178_R173C_YF] | 0.987

Row | Sequence | phosphorylation enrichment
117 | HKNNNYEPSLF [BRCA2_Y57_N60S] | 0.897
118 | LINPKYSVEEE [PCDH19_Y27_L25P] | 1.65
119 | LLVVLNKFRCF [PSEN1_Y154_Y154N_YF] | 1.66
120 | CPPELYALMSD [ZAP70_Y569] | 0.892
121 | VNYQPYRKHKY [TEX37_Y28_D24N] | 0.409
122 | HAEERYGKELV [PSTPIP1_Y53_Q48H] | 1.06
123 | TQNAVYSAANY [DDX5_Y535_G533A] | 0.527
124 | GITVTYTIPKK [UBA5_Y372_A371T] | 0.994
125 | QRHFVYFFSFL [PTEN_Y176_R173H_YF] | 1.46
126 | RAILLYEYVGK [NATD1_Y45_V42I] | 2.34
127 | VDLIVYLWTNP [TK2_Y181_R183W] | 1.21
128 | KKKKQYKGKFL [CASK_Y708_D710G_YF] | 0.535
129 | RLRAAYNLVKR [PFKM_Y103] | 0.766
130 | PGGNIYISPLK [RB1_Y805] | 0.529
131 | GGFTWYCDGKK [PROS1_Y266_C265W_YF] | 1.2
132 | HSVLNYGVCVC [JAK2_Y613_L609S] | 1.17
